# Assay results published in the supplement of paper PMC6755084.
# B1: F1*; the commonest letter at each place (parent)
# chain: GAGACCGCAACTGAAAAGTTGTTATCACTTGTCGTAAGACACTTTGGATGGGTTGAAGTTCTGCACGTAGAAGCAAAAGGC
# Variants of: B1
# Assay: fraction ligated after 30 min (ligated reads / total reads); higher = more ligase activity
# Details: with F1*sub RNA substrate (template-directed ligation), 42 °C
# Summary of the method: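 Templates from an oligo pool were PCR-amplified, transcribed with T7 and gel-purified to give the ribozyme variants. Ligated and unligated products were separated on gel, reverse transcribed using barcoded primers, and read on a MiSeq. A quality filter of ≥20 was applied to core bases. Fraction ligated was taken as ligated reads as a share of all reads per variant.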
row,Variant,fraction ligated
1,T49C A56T,0.0726
2,A27C G50A,0.18
3,A41T C42G,0.836
4,A27G A57G,0.819
5,A27G A57C,0.777
6,T30C T43C,0.788
7,A36G T44A,0.848
8,G38C G47C,0.0356
9,T23C C26G,0.136
10,T32G C40T,0.836
11,A37G C42T,0.857
12,T35A A41G,0.811
13,T44A G47T,0.55
14,T43A T44A,0.848
15,T25A G50A,0.225
16,A48G A57C,0.792
17,C33G C40G,0.826
18,A48T G55T,0.17
19,A36C T44C,0.815
20,A41T T43C,0.773
21,T30G A57T,0.828
22,T23G T44C,0.802
23,T32A G46A,0.81
24,T23A A24C,0.782

row,Variant,fraction ligated
1,A41G A48T,0.625
2,C26A C42A,0.773
3,G34T T43A,0.827
4,G46C A48T,0.0498
5,C26A A57T,0.738
6,G46T G55C,0.111
7,G46T G55A,0.726
8,T30C A48T,0.346
9,A57G,0.822
10,T32C T43A,0.779
11,T32C T43G,0.729
12,C33G T44C,0.804
13,G31T T44C,0.782
14,T43C T49C,0.427
15,G34A A37T,0.84
16,C33T G46T,0.791
17,A36G G46T,0.825
18,T30A G50T,0.57
19,T29C G55A,0.815
20,A24T T29G,0.716
21,A24G G55C,0.18
22,G47C A57C,0.0685
23,C28A G34T,0.808
24,T25G T45G,0.0229

row,Variant,fraction ligated
1,G34A G38A,0.861
2,A41G T43A,0.817
3,T29G C42A,0.813
4,T43G G50T,0.561
5,A27C C33G,0.815
6,A36C C40T,0.818
7,T23G A41C,0.727
8,G38A T44A,0.838
9,T32G G50A,0.179
10,G38A G47C,0.163
11,G38A G50T,0.72
12,T30C G31C T32G C33G G38C A39C C40G A41G,0.839
13,T30A T45A,0.604
14,T32A T49C,0.223
15,C28A,0.809
16,T23A A41T,0.807
17,T32C C40T,0.786
18,T29A T49G,0.789
19,G34A A41T,0.811
20,T32G T44C,0.795
21,A48T A57G,0.787
22,T35C G38A,0.856
23,G55C A56T A57T,0.0179
24,C26G T30C,0.676

row,Variant,fraction ligated
1,G38T A41C,0.785
2,A41T A48G,0.762
3,A41T A48C,0.73
4,C26T G47A,0.843
5,T25G A39T,0.393
6,T29A T35C,0.828
7,A36G A57C,0.863
8,C33G T35G,0.843
9,T35G G55C,0.807
10,T25C G55C,0.424
11,A24C G31T,0.0308
12,C42G T44A,0.851
13,A56G A57G,0.807
14,A27T G34T,0.771
15,T23A C40T,0.833
16,T25C A48C,0.686
17,T25C A48G,0.794
18,A27T A48G,0.794
19,C28T A39C,0.795
20,A39G T43A,0.838
21,T43G A48C,0.625
22,A27T C28A,0.829
23,G31C A41T,0.732
24,C33T A48C,0.789

row,Variant,fraction ligated
1,C42A G50C,0.239
2,T32A A48C,0.727
3,C28A T43C,0.795
4,C40T G46T,0.792
5,T23C T43A,0.815
6,T23C T43C,0.759
7,C40A G50T,0.488
8,A37G G38A,0.882
9,A37G G38C,0.828
10,C40G G46C,0.801
11,T32C A36C,0.795
12,T30C G50A,0.175
13,C28T G50C,0.323
14,T29C A41C,0.768
15,T44A A48T,0.82
16,T29A G50A,0.295
17,T29A G50C,0.195
18,A27C C40A,0.817
19,C33T G47C,0.165
20,C26T,0.836
21,T29C A39G,0.824
22,G34C T43A,0.843
23,A39G C40T,0.844
24,A39T G55C,0.738

row,Variant,fraction ligated
1,T43A G50A,0.267
2,T43A G50C,0.153
3,A36T G50A,0.642
4,A41C T43G,0.76
5,T32A A37T,0.82
6,T35G A57G,0.838
7,T30G C42T,0.817
8,C28T T32G,0.8
9,C28A T35C,0.807
10,T45C T49A,0.0409
11,T45C T49G,0.0625
12,T35G T49G,0.778
13,G47A T49G,0.798
14,C40G T49G,0.763
15,C28T C42T,0.819
16,C40G G50C,0.134
17,T23C C40T,0.811
18,G31C,0.79
19,T25G G38T,0.659
20,A24G T25A,0.697
21,T44C A48C,0.783
22,A27T G31C,0.864
23,T30G G50A,0.513
24,C33A A56T,0.837

row,Variant,fraction ligated
1,C28G A36T,0.788
2,G34A A48G,0.795
3,T44C G55A,0.815
4,G38T A39G,0.798
5,T30A T44C,0.828
6,T32C T49C,0.193
7,T29C A48T,0.592
8,A24C G46A,0.335
9,T32G C42A,0.845
10,G50C G55T,0.0259
11,A41G A56T,0.756
12,A41T G46A,0.804
13,A41T G46T,0.787
14,T32G G47C,0.0306
15,G46A G50C,0.0754
16,A24T T30A,0.67
17,C28A G46T,0.803
18,A39G G55C,0.801
19,A24T A36C,0.805
20,G46A A57T,0.803
21,G55C A56G,0.843
22,A27C T44A,0.79
23,T29G A41G,0.815
24,C40A G47C,0.25

row,Variant,fraction ligated
1,A37G T45G,0.407
2,A24T A41T,0.785
3,A24G A27T,0.126
4,T23G T32G,0.842
5,A27C T49G,0.733
6,T35A G38T,0.855
7,C26T T30C,0.839
8,C26G A56T,0.0342
9,T25A G55A,0.263
10,T25A T49A,0.721
11,A24G A41G,0.691
12,T35A A56T,0.82
13,T35A A48G,0.801
14,T32G G34T,0.793
15,T35C G47T,0.36
16,C33G T45C,0.273
17,T45A T49A,0.0341
18,T32C G47C,0.0784
19,A24T T35A,0.808
20,G55T A56T A57T,0.0137
21,T44A A57G,0.812
22,A36T G46C,0.787
23,A24T G31T,0.0661
24,A24T G31A,0.0391

row,Variant,fraction ligated
1,A27C G47C,0.158
2,C28G T30A,0.802
3,T32G A56T,0.785
4,C26A A36G,0.781
5,A27G C42A,0.827
6,C42G G50T,0.713
7,G31C G50A,0.057
8,C28A G50T,0.517
9,T45G G50A,0.0135
10,C26A G55T,0.249
11,C40A A41T,0.81
12,A41G T49A,0.671
13,A41G T49C,0.564
14,C28G A56G,0.722
15,T25G A48G,0.291
16,T25G A48T,0.818
17,C40A T43A,0.856
18,A24T G55C,0.107
19,G46C,0.804
20,G31A G46C,0.524
21,C26T A56C,0.29
22,G47C G55T,0.0996
23,T23G G38C,0.808
24,C28G G50C,0.19

row,Variant,fraction ligated
1,T32C G34C,0.772
2,T32C A56G,0.738
3,A41G C42A,0.85
4,T29A T30G,0.828
5,C42G T49C,0.727
6,T43G T44G,0.809
7,T43G T44A,0.808
8,C28T A56G,0.567
9,A24G A36T,0.789
10,G31C C42G,0.79
11,T43G T45A,0.763
12,T29G T49C,0.733
13,C26G T29G,0.778
14,G34T T35G,0.847
15,G31T G50A,0.0382
16,T23G A39C,0.776
17,G34C G47T,0.352
18,G34C A56C,0.779
19,T32A G47T,0.104
20,T32A G47C,0.102
21,T49A A57G,0.792
22,T49A A57T,0.724
23,C40T G47A,0.798
24,T32G A37G,0.842

row,Variant,fraction ligated
1,A24C A57T,0.55
2,G31A T49A,0.214
3,A36C G46A,0.793
4,T25A C26T,0.129
5,C42T G47T,0.408
6,G31T A37C,0.78
7,T35C A57G,0.822
8,T25A A39G,0.751
9,T23A A27T,0.794
10,T32C A48C,0.369
11,T25A A57C,0.199
12,C40A A56G,0.785
13,T35C T45A,0.748
14,T23G C26A,0.789
15,A37T G55A,0.862
16,T25A C42A,0.653
17,T29G G50C,0.243
18,A27T T45C,0.762
19,T25G T29G,0.714
20,A37C A41C,0.759
21,A48G T49G,0.752
22,C33T A56G,0.797
23,A56G,0.781
24,T45C A48G,0.0929

row,Variant,fraction ligated
1,G47A A57C,0.703
2,T30A A37G,0.87
3,T23C T32A,0.821
4,C40T T44C,0.829
5,C28G G55C,0.28
6,G55A A56T,0.8
7,T30C G55A,0.81
8,A24C A39C,0.131
9,A24C A39T,0.197
10,T29C,0.824
11,A24T T25G,0.722
12,C33G A37T,0.853
13,T44A G55A,0.827
14,T23C A24T,0.501
15,G55A A56T A57G,0.143
16,A41G T44C,0.76
17,C26T T43C,0.788
18,C28A C33A,0.818
19,C26A T43C,0.755
20,A36G A41G,0.788
21,C33A A39G,0.84
22,C33A G55A,0.84
23,T25C C28T,0.803
24,T29A G47T,0.473

row,Variant,fraction ligated
1,T35G G47T,0.391
2,T35G G47A,0.78
3,T25A C33T,0.472
4,T35G A39C,0.816
5,A27G A37T,0.81
6,C26G G38A,0.446
7,G34C T44C,0.803
8,T25C G34A,0.799
9,C40G G47A,0.783
10,T25G A56C,0.0423
11,T23A C42T,0.817
12,C40T A57T,0.798
13,C28G A48T,0.47
14,A37T C40A,0.809
15,A27C G38C,0.792
16,C42T T45A,0.799
17,T25G G55A,0.442
18,A24C A27T,0.668
19,T44G G55T,0.795
20,C33T G50A,0.603
21,T25C A27G,0.796
22,T25C A41C,0.517
23,A27G A39G,0.799
24,A41C G47C,0.177

row,Variant,fraction ligated
1,A41C G47T,0.157
2,G46A T49C,0.38
3,T44G G47A,0.305
4,T43A G55A,0.854
5,A36C C42A,0.852
6,G34C G50C,0.329
7,G46T A57T,0.754
8,C42T T44G,0.833
9,C33T A41T,0.808
10,C40G C42T,0.8
11,C40G C42A,0.82
12,T32G G38T,0.799
13,T30A T35A,0.839
14,T30A T35C,0.816
15,T25C T43A,0.655
16,T43C T45A,0.574
17,G38A A41C,0.782
18,G31A G34C,0.769
19,T25G T32C,0.364
20,A36T T43G,0.812
21,A36T T43C,0.814
22,C28A A48G,0.784
